Measurements from the supplement of paper PMC9112550, “Optimization of the antimicrobial peptide Bac7 by deep mutational scanning” (BMC Biology, 2022).

System: Escherichia coli TOP10
Assay: shrunken log2 fold change of peptide-encoding DNA abundance (4.5 h post-induction vs induction); higher = less antimicrobial activity (less host growth inhibition)
Conditions: time post-induction: 4.5 h; library: site-saturation at positions 5, 18, 19, 20
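Note: peptides expressed intracellularly from a pBAD plasmid library in pooled LB shake-flask culture, induced with 0.3% L-arabinose, DNA abundance read by NGS, three biological replicates, DESeq2 with apeglm shrinkage.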

Sequence | shrunken log2 fold change
RRIRYRPPRLPRPRPRPWRDPRP | -0.0075
RRIRKRPPRLPRPRPRPCMIPRP | 0.0302
RRIRTRPPRLPRPRPRPWPIPRP | 0.00716
RRIRLRPPRLPRPRPRPRTMPRP | -0.0102
RRIRVRPPRLPRPRPRPWPQPRP | 0.104
RRIRMRPPRLPRPRPRPVFYPRP | -0.0165
RRIRARPPRLPRPRPRPCLGPRP | 0.0637
RRIRVRPPRLPRPRPRPFKFPRP | -0.0599
RRIRSRPPRLPRPRPRPPADPRP | 0.981
RRIRIRPPRLPRPRPRPRWIPRP | -0.0611
RRIRWRPPRLPRPRPRPIGVPRP | 0.0389
RRIRSRPPRLPRPRPRPCTLPRP | -0.399
RRIRIRPPRLPRPRPRPTYQPRP | -0.715
RRIRCRPPRLPRPRPRPPHVPRP | 0.385
RRIRQRPPRLPRPRPRPLLPPRP | 0.0127
RRIRWRPPRLPRPRPRPILPPRP | -0.0759
RRIRPRPPRLPRPRPRPYIFPRP | -0.984
RRIRHRPPRLPRPRPRPWCCPRP | -0.352
RRIRARPPRLPRPRPRPMVSPRP | 0.124
RRIRTRPPRLPRPRPRPIMSPRP | -0.152
RRIRHRPPRLPRPRPRPGAIPRP | -0.15
RRIRGRPPRLPRPRPRPGVLPRP | 0.912
RRIRRRPPRLPRPRPRPKQKPRP | 0.264
RRIRARPPRLPRPRPRPLNVPRP | -0.234
RRIRLRPPRLPRPRPRPSNQPRP | -1.04

Sequence | shrunken log2 fold change
RRIRGRPPRLPRPRPRPIAEPRP | 3.26
RRIRYRPPRLPRPRPRPACIPRP | -0.389
RRIRERPPRLPRPRPRPGGAPRP | 0.276
RRIRYRPPRLPRPRPRPMLNPRP | -0.892
RRIRIRPPRLPRPRPRPFMCPRP | -0.103
RRIRNRPPRLPRPRPRPCYHPRP | -0.0967
RRIRLRPPRLPRPRPRPLDGPRP | -0.0562
RRIRERPPRLPRPRPRPVKTPRP | 0.0285
RRIRGRPPRLPRPRPRPWWRPRP | 0.626
RRIRLRPPRLPRPRPRPELDPRP | 0.273
RRIRERPPRLPRPRPRPNMNPRP | -0.808
RRIRKRPPRLPRPRPRPTIQPRP | -0.0129
RRIRNRPPRLPRPRPRPKEYPRP | 0.199
RRIRVRPPRLPRPRPRPLSWPRP | 0.0819
RRIRSRPPRLPRPRPRPPFNPRP | -0.298
RRIRHRPPRLPRPRPRPVVKPRP | -0.132
RRIRIRPPRLPRPRPRPMNIPRP | -0.0512
RRIRFRPPRLPRPRPRPTCCPRP | -0.0828
RRIRCRPPRLPRPRPRPWDWPRP | 0.313
RRIRRRPPRLPRPRPRPPHMPRP | 1.11
RRIRDRPPRLPRPRPRPNWKPRP | -0.0238
RRIRARPPRLPRPRPRPYSDPRP | -0.262
RRIRKRPPRLPRPRPRPQCVPRP | 0.117
RRIRPRPPRLPRPRPRPFFAPRP | 0.468
RRIRCRPPRLPRPRPRPDCFPRP | 0.182

Sequence | shrunken log2 fold change
RRIRNRPPRLPRPRPRPGSAPRP | 0.025
RRIRCRPPRLPRPRPRPHDWPRP | 0.112
RRIRRRPPRLPRPRPRPDRHPRP | -0.0411
RRIRLRPPRLPRPRPRPLGKPRP | -0.0194
RRIRNRPPRLPRPRPRPRHPPRP | 0.136
RRIRHRPPRLPRPRPRPASWPRP | 0.305
RRIRYRPPRLPRPRPRPKNPPRP | -0.315
RRIRVRPPRLPRPRPRPHADPRP | 0.00219
RRIRTRPPRLPRPRPRPTHPPRP | 0.312
RRIRKRPPRLPRPRPRPVKMPRP | 0.0491
RRIRLRPPRLPRPRPRPGEGPRP | -0.036
RRIRMRPPRLPRPRPRPMLFPRP | 0.138
RRIRPRPPRLPRPRPRPIYMPRP | -0.306
RRIRDRPPRLPRPRPRPPSDPRP | 0.251
RRIRLRPPRLPRPRPRPVPWPRP | 0.0255
RRIRDRPPRLPRPRPRPSNLPRP | -0.0257
RRIRWRPPRLPRPRPRPGLWPRP | 1.16
RRIRWRPPRLPRPRPRPCPFPRP | -0.646
RRIRPRPPRLPRPRPRPYGGPRP | -0.153
RRIRNRPPRLPRPRPRPSDVPRP | -1.29
RRIRRRPPRLPRPRPRPTNYPRP | -0.0945
RRIRYRPPRLPRPRPRPDIHPRP | -0.549
RRIRTRPPRLPRPRPRPFQWPRP | -0.0875
RRIRQRPPRLPRPRPRPMVNPRP | -0.2
RRIRVRPPRLPRPRPRPWRVPRP | 0.435

Sequence | shrunken log2 fold change
RRIRHRPPRLPRPRPRPNWIPRP | -0.19
RRIRGRPPRLPRPRPRPVTTPRP | 1.21
RRIRWRPPRLPRPRPRPYGTPRP | -0.232
RRIRTRPPRLPRPRPRPYHCPRP | 0.0119
RRIRTRPPRLPRPRPRPYEWPRP | -0.139
RRIRYRPPRLPRPRPRPGPKPRP | 0.185
RRIRCRPPRLPRPRPRPGFEPRP | 0.244
RRIRIRPPRLPRPRPRPNPRPRP | -0.225
RRIRGRPPRLPRPRPRPQWTPRP | 0.319
RRIRGRPPRLPRPRPRPLFHPRP | 0.134
RRIRQRPPRLPRPRPRPFSAPRP | -0.0161
RRIRERPPRLPRPRPRPVIGPRP | -0.108
RRIRERPPRLPRPRPRPGGTPRP | -0.215
RRIRKRPPRLPRPRPRPDKGPRP | -0.022
RRIRTRPPRLPRPRPRPSWYPRP | -1.12
RRIRHRPPRLPRPRPRPDRVPRP | -0.0183
RRIRGRPPRLPRPRPRPCGCPRP | 1.09
RRIRIRPPRLPRPRPRPINKPRP | -1.11
RRIRKRPPRLPRPRPRPYHMPRP | -0.0573
RRIRERPPRLPRPRPRPCVWPRP | 0.0291
RRIRCRPPRLPRPRPRPMGKPRP | 0.0173
RRIRIRPPRLPRPRPRPEPTPRP | 0.659
RRIRQRPPRLPRPRPRPRFLPRP | -0.0439
RRIRDRPPRLPRPRPRPETRPRP | 1.11
RRIRKRPPRLPRPRPRPESPPRP | 0.188

Sequence | shrunken log2 fold change
RRIRLRPPRLPRPRPRPFGKPRP | -0.168
RRIRYRPPRLPRPRPRPEMDPRP | -0.338
RRIRLRPPRLPRPRPRPQGSPRP | -0.0921
RRIRPRPPRLPRPRPRPSTVPRP | -0.687
RRIRKRPPRLPRPRPRPQGPPRP | 0.053
RRIRQRPPRLPRPRPRPQYHPRP | -0.609
RRIRERPPRLPRPRPRPRFFPRP | -0.00349
RRIRCRPPRLPRPRPRPAHYPRP | -0.127
RRIRGRPPRLPRPRPRPAGIPRP | 0.207
RRIRTRPPRLPRPRPRPMRRPRP | 0.00555
RRIRARPPRLPRPRPRPTVVPRP | 0.238
RRIRRRPPRLPRPRPRPFCEPRP | 0.0918
RRIRWRPPRLPRPRPRPETPPRP | 1.33
RRIRQRPPRLPRPRPRPRVWPRP | 0.163
RRIRCRPPRLPRPRPRPYNNPRP | -1.23
RRIRYRPPRLPRPRPRPYDQPRP | -0.124
RRIRPRPPRLPRPRPRPVFGPRP | 0.206
RRIRHRPPRLPRPRPRPLFQPRP | -0.108
RRIRVRPPRLPRPRPRPYCKPRP | -1.15
RRIRFRPPRLPRPRPRPHHEPRP | -0.515
RRIRERPPRLPRPRPRPSRNPRP | -0.207
RRIRFRPPRLPRPRPRPFCHPRP | -0.433
RRIRDRPPRLPRPRPRPNVVPRP | -0.0354
RRIRSRPPRLPRPRPRPWWVPRP | -0.2
RRIRPRPPRLPRPRPRPCMGPRP | -0.398

Sequence | shrunken log2 fold change
RRIRDRPPRLPRPRPRPYRSPRP | -0.142
RRIRMRPPRLPRPRPRPMERPRP | -0.0334
RRIRDRPPRLPRPRPRPHYAPRP | -0.00151
RRIRRRPPRLPRPRPRPAGYPRP | -0.269
RRIRCRPPRLPRPRPRPYHLPRP | -0.0832
RRIRCRPPRLPRPRPRPPLWPRP | 0.32
RRIRVRPPRLPRPRPRPLNFPRP | -0.249
RRIRGRPPRLPRPRPRPFELPRP | 0.0951
RRIRLRPPRLPRPRPRPHMHPRP | -0.578
RRIRMRPPRLPRPRPRPMCTPRP | -0.0175
RRIRDRPPRLPRPRPRPLMMPRP | 0.0576
RRIRPRPPRLPRPRPRPCMIPRP | -0.692
RRIRKRPPRLPRPRPRPSVVPRP | 0.45
RRIRRRPPRLPRPRPRPCTLPRP | -0.49
RRIRLRPPRLPRPRPRPFQYPRP | -0.182
RRIRDRPPRLPRPRPRPHCQPRP | -0.146
RRIRTRPPRLPRPRPRPILSPRP | -0.0676
RRIRTRPPRLPRPRPRPRVDPRP | 0.181
RRIRDRPPRLPRPRPRPHICPRP | -0.205
RRIRPRPPRLPRPRPRPKNHPRP | -0.282
RRIRRRPPRLPRPRPRPRQIPRP | 0.452
RRIRSRPPRLPRPRPRPAQCPRP | 0.0899
RRIRPRPPRLPRPRPRPCFRPRP | 0.00938
RRIRLRPPRLPRPRPRPKSVPRP | 0.0155
RRIRGRPPRLPRPRPRPQDWPRP | 0.639
